The text below walks through data of paper PMC5663490 (PLoS ONE, 2017).

For test [1], the target named is HMunc18c (mouse) (UniProt Q60770). Nature of the test: ITC; Munc18 proteins (HMunc18c or Munc18a-His) at 10–20 μM with Syntaxin partners at 100–550 μM; 298 K; 25 mM HEPES pH 8, 200 mM NaCl, 2 mM β-mercaptoethanol, 10% glycerol; 16 injections of 2.45 μL; which partner was in the syringe is not said.
Test [2] addresses T1, HMunc18c (mouse, UniProt Q60770 1-592).
T1 construct: pQE30 vector; also called Munc18-3; source: E. coli BL21 with GroEL/ES chaperones, purified (Ni2+ resin, SEC, MonoS if required); not shown: His6, N-terminal, kept
T1 sequence (looked up): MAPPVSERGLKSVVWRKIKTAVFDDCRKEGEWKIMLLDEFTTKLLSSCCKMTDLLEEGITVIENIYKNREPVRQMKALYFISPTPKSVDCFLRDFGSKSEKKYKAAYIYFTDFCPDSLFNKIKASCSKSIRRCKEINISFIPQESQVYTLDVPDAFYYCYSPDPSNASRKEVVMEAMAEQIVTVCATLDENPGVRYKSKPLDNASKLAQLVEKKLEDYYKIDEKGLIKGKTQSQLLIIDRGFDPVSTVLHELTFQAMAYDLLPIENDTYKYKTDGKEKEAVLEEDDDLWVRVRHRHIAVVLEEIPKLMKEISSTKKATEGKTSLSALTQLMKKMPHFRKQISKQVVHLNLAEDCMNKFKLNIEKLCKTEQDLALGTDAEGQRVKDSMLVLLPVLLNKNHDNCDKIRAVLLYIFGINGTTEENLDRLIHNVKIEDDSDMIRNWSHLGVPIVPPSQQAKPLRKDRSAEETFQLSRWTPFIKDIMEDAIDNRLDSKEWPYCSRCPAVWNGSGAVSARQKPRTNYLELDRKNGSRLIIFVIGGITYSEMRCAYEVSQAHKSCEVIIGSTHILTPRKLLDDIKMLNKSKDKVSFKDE
Described as above. Conditions: both partners purified.

“Sx1_(1-261)-His (from UniProt P32851 1-261) (domain or fragment)”: in test [1], the Kd turned out to be 80 nM, the dH is -15.2 kcal/mol and the stoichiometry N came out at 1.03.
The corresponding values for “ΔNSx1_(25-261)-His (from UniProt P32851 25-261) (domain or fragment)” are 730000 nM, -4.44 kcal/mol and 1.07.

B1: Sx4_(1-275)-His (domain or fragment, rat, UniProt Q08850 1-275, looked up)
chain: MRDRTHELRQGDNISDDEDEVRVALVVHSGAARLSSPDDEFFQKVQTIRQTMAKLESKVRELEKQQVTILATPLPEESMKQGLQNLREEIKQLGREVRAQLKAIEPQKEEADENYNSVNTRMKKTQHGVLSQQFVELINKSNSMQSEYREKNVERIRRQLKITNAGMVSDEELEQMLDSGQSEVFVSNILKDTQVTRQALNEISARHSEIQQLERSIRELHEIFTFLATEVEMQGEMINRIEKNILSSADYVERGQEHVKIALENQKKARKKKVM
notes: cloned into pET20b; also called Syntaxin4; not shown: His6, C-terminal, kept
With B1, in test [2], the dissociation constant (Kd) worked out at 100 nM, the dH is -14.1 kcal/mol and the “stoichiometry N” value turned out to be 1.03.
